Experimental data as given in the supplement of paper PMC6757056.
± gives the standard deviation of the averaged measurements.

B1: library; a variant is named by its letters at N, in order (parent)
chain: GCUGUCACCGGUGUAUUACCCUAGUGGUCGACCGGUCUGAUGAGUCUNNNNNNAGACGAAACAGC

Experiments:
hypoxanthine [1] = variants of: B1; experiment: normalized RNA/DNA level with ligand (relative to sTRSVctl = 100) (log10 (% of sTRSVctl)); ligand: hypoxanthine (xanthine aptamer); higher = less ribozyme self-cleavage, higher mRNA level; conditions: ligand concentration (+) RNA-Seq: 5 mM, HEK293T, reporter: mCherry (pCS4076), ligand present: yes
Procedure, shortened: (§1)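 Only sequences with at least 100 DNA reads were analyzed, from HEK293T cells transfected with 4 µg per 6-well well of ribozyme switch library plasmids 72 h before RNA extraction with EDTA. Any ligand was added 1 h before transfection. RNA level was defined as RNA over DNA reads, normalized to a spiked-in non-cleaving sequence or to the top sequences, then scaled and log-transformed. The top set was 25 sequences, and the scaling was ×100 followed by log10.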

hypoxanthine [2] = variants of: B1; experiment: normalized RNA/DNA level without ligand (relative to sTRSVctl = 100) (log10 (% of sTRSVctl)); ligand: hypoxanthine (xanthine aptamer); higher = less ribozyme self-cleavage, higher mRNA level; conditions: HEK293T, reporter: mCherry (pCS4076), ligand present: no
Procedure, shortened: as §1

Row | Variant | normalized RNA/DNA level with ligand (log10) (hypoxanthine [1]) | normalized RNA/DNA level without ligand (log10) (hypoxanthine [2])
1 | GCUGUCACCGGUGUAUUACCCUAGUGGUCGACCGGUCUGAUGAGUCUCCACUAAGACGAAACAGC | 1.97 ± 0.042 | 1.86 ± 0.071
2 | GCUGUCACCGGUGUAUUACCCUAGUGGUCGACCGGUCUGAUGAGUCUCCACUUAGACGAAACAGC | 1.94 ± 0.024 | 1.914 ± 0.019
3 | GCUGUCACCGGUGUAUUACCCUAGUGGUCGACCGGUCUGAUGAGUCUCCACUCAGACGAAACAGC | 2.02 ± 0.059 | 1.98 ± 0.036
4 | GCUGUCACCGGUGUAUUACCCUAGUGGUCGACCGGUCUGAUGAGUCUUCACGUAGACGAAACAGC | 1.92 ± 0.042 | 1.78 ± 0.062
5 | GCUGUCACCGGUGUAUUACCCUAGUGGUCGACCGGUCUGAUGAGUCUUCAGGCAGACGAAACAGC | 1.96 ± 0.073 | 1.96 ± 0.03
6 | GCUGUCACCGGUGUAUUACCCUAGUGGUCGACCGGUCUGAUGAGUCUUCAGGUAGACGAAACAGC | 1.87 ± 0.052 | 1.654 ± 0.0062
7 | GCUGUCACCGGUGUAUUACCCUAGUGGUCGACCGGUCUGAUGAGUCUUCAGCAAGACGAAACAGC | 1.99 ± 0.021 | 1.88 ± 0.03
8 | GCUGUCACCGGUGUAUUACCCUAGUGGUCGACCGGUCUGAUGAGUCUUCAGCUAGACGAAACAGC | 1.99 ± 0.03 | 1.948 ± 0.014
9 | GCUGUCACCGGUGUAUUACCCUAGUGGUCGACCGGUCUGAUGAGUCUUCAGCCAGACGAAACAGC | 2.04 ± 0.02 | 1.997 ± 0.0026
10 | GCUGUCACCGGUGUAUUACCCUAGUGGUCGACCGGUCUGAUGAGUCUUCACUCAGACGAAACAGC | 1.99 ± 0.02 | 2.03 ± 0.026
11 | GCUGUCACCGGUGUAUUACCCUAGUGGUCGACCGGUCUGAUGAGUCUUCACUUAGACGAAACAGC | 1.93 ± 0.043 | 1.88 ± 0.025
12 | GCUGUCACCGGUGUAUUACCCUAGUGGUCGACCGGUCUGAUGAGUCUUCACUAAGACGAAACAGC | 1.92 ± 0.051 | 1.83 ± 0.088
13 | GCUGUCACCGGUGUAUUACCCUAGUGGUCGACCGGUCUGAUGAGUCUGCACGUAGACGAAACAGC | 1.91 ± 0.053 | 1.73 ± 0.032
14 | GCUGUCACCGGUGUAUUACCCUAGUGGUCGACCGGUCUGAUGAGUCUCCAGAUAGACGAAACAGC | 1.9387 ± 0.00089 | 1.8 ± 0.057
15 | GCUGUCACCGGUGUAUUACCCUAGUGGUCGACCGGUCUGAUGAGUCUCCAGACAGACGAAACAGC | 1.954 ± 0.0047 | 1.877 ± 0.011
16 | GCUGUCACCGGUGUAUUACCCUAGUGGUCGACCGGUCUGAUGAGUCUCCAGCUAGACGAAACAGC | 1.99 ± 0.097 | 1.94 ± 0.045
17 | GCUGUCACCGGUGUAUUACCCUAGUGGUCGACCGGUCUGAUGAGUCUCCAGCGAGACGAAACAGC | 1.917 ± 0.0021 | 1.82 ± 0.038
18 | GCUGUCACCGGUGUAUUACCCUAGUGGUCGACCGGUCUGAUGAGUCUCCAGCAAGACGAAACAGC | 1.966 ± 0.019 | 1.87 ± 0.043
19 | GCUGUCACCGGUGUAUUACCCUAGUGGUCGACCGGUCUGAUGAGUCUGCAGCGAGACGAAACAGC | 1.97 ± 0.028 | 1.62 ± 0.042
20 | GCUGUCACCGGUGUAUUACCCUAGUGGUCGACCGGUCUGAUGAGUCUGCAGCUAGACGAAACAGC | 2.014 ± 0.019 | 1.95 ± 0.038
21 | GCUGUCACCGGUGUAUUACCCUAGUGGUCGACCGGUCUGAUGAGUCUGCAGGCAGACGAAACAGC | 1.861 ± 0.0028 | 1.65 ± 0.036
